Test results published in patent US20170247437A1 (ONCOMED PHARMACEUTICALS, published 2017).
Each block holds one molecule with its values, some of them ahead of it.

How the values were obtained:
[1] = molecular target: FLAG-RSPO1furin-CD4TM-GFP (human) (UniProt Q2MKA7); test: FACS on HEK-293 cells transiently expressing FLAG-RSPO1furin-CD4TM-GFP; secondary APC-conjugated anti-IgG alone, no primary antibody
[2] = molecular target: T1, recombinant human RSPO1 (R&D Systems) (human, UniProt Q2MKA7 21-263); test: ELISA on plate-coated recombinant human RSPO1, anti-human IgG Fc-HRP detection, 4-parameter fit, 3 runs
T1 construct: Bought protein
T1 sequence (Q2MKA7 21-263 limits assumed): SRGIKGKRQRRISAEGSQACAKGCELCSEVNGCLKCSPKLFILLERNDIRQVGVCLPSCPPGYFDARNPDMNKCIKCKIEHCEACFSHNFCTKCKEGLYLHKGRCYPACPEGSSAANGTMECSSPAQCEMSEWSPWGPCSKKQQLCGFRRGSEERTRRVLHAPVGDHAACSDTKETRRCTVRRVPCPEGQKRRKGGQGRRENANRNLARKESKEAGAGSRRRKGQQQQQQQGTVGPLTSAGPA
Protocol: High binding 96 well plates (Nalge Nunc International) were coated with […] recombinant human RSPO1 (R&D Systems) in coating buffer (1× PBS, pH 7.4) overnight at 2-8° C. The plates were washed 3-6 times after each step with 300 μl/well of 1× PBS, 0.05% Tween-20, pH 7.4. After coating, the plates were incubated with 250 μl/well of blocking buffer (1× PBS, 0.1% gelatin, 0.1% TWEEN-20, pH 7.4) for 60 minutes ±10 minutes at room temperature (19-25° C.). Plates were washed and incubated with 100 μl/well of first generation humanized anti-RSPO1 antibody h89M5-H2L2 and second generation humanized antibody h89M5-H8L5 for 120 minutes ±10 minutes at room temperature. First generation humanized anti-RSPO1 antibody h89M5-H2L2 was use as the reference standard and the positive control. The antibodies were prepared at an initial concentration of 2.5 μg/ml and diluted 3-fold serially, ranging from 2.5 μg/ml to […]. Each sample was tested in duplicate and the experiment was run 3 times. […] The binding of the antibodies to RSPO1 was measured by absorbance at 450 nm and 650 nm using an ELISA plate reader (Molecular Devices). The results were analyzed using a 4-parameter curve fit, and relative binding potency was determined by comparing EC₅₀ values of the reference to that of the samples.

FLAG-RSPO1furin-CD4TM-GFP (human), sequence (Q2MKA7 34-135): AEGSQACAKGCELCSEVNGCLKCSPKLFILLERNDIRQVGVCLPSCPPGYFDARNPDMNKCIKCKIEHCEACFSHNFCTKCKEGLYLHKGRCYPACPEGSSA

- MFI [1]: 3.2
Molecule: Secondary Ab Control (antibody)

- mean relative binding potency (EC50 against reference h89M5-H2L2) [2]: 120%
B1: second generation humanized anti-RSPO1 antibody h89M5-H8L5 (antibody, human IgG1, kappa, V domains shown)
VH: EVQLVQSGAEVKKPGESLRISCKGSGYSFTGYTMHWVRQMPGKGLEWMGGINPNNGGTTYNQNFKGHVTISADKSISTAYLQWSSLKASDTAMYYCARKEFSDGYYFFAYWGQGTLVTVSS
VL: DIVMTQSPDSLAVSLGERATINCKASQDVIFAVAWYQQKPGQPPKLLIYWASTRHTGVPDRFSGSGSGTDFTLTISSLQAEDVAVYYCQQHYSTPWTFGGGTKVEIKR
notes: Humanized version of mouse antibody 89M5, with the same CDRs as h89M5-H2L2; also called h89R5-H8L5
